Results: paper PMC10147923, “Pain-causing stinging nettle toxins target TMEM233 to modulate NaV1.7 function” (Nature Communications, 2023)
“And” between values parts separate entries of the source, which are not always exact repeats. Equal values may be shown once.

Assays:
Format in all cases: cell-based
NaV1.7 [1] = molecular target: T1, NaV1.7 (Homo sapiens, UniProt Q15858); details: Fig 6d
Protocol: Current-voltage (IV) curves were determined in HEK-NaV1.7 cells, in the absence and presence of TMEM233, from a series of step pulses (500 ms) ranging from −110 to +55 mV (5 mV increments, repetition interval 5 s) before and after incubation with ExTxA (1 μM) from a holding potential of −90 mV. Currents were converted to conductance (G) using G = I/(V − Vrev), with Vrev being the reversal potential, plotted against voltage and fitted with a Boltzmann equation to obtain GV (conductance-voltage) curves. Voltage dependence of steady-state fast inactivation was determined by a subsequent 10 ms pulse to −20 mV immediately following the 500 ms depolarization step detailed above to assess the available non-inactivated channels.

TMEM233 = TMEM233 (Homo sapiens, UniProt B4DJY2); experiment: Currents in Cos-1 cells transfected with TMEM233 only
Protocol: Whole-cell patch clamp experiments involving HEK293, COS-1, CHO, ND7/23, F11, SH-SY5Y and TE-671 cells were performed on a QPatch II automated electrophysiology platform (Sophion Bioscience, Ballerup, Denmark) as previously described. Cells at approximately 70–80% confluency were harvested from T75 flasks using TrypLE Express at 37 °C for 2–5 min and resuspended in DMEM with 25 mM HEPES (Sigma-Aldrich, NSW, Australia), 100 U/mL Penicillin-Streptomycin (Gibco) and 40 µg/mL trypsin inhibitor from Glycine max (soybean) (Sigma Aldrich) prior to recovery on a QStirrer (Sophion) for 30 min. 16-channel patch plates with a patch hole diameter of 1 μm and resistance of 2 ± 0.02 MΩ were used. Cell positioning and sealing parameters were as follows: positioning pressure −60 mbar, minimum seal resistance 0.1 GΩ, holding potential −100 mV, holding pressure −20 mbar. Whole-cell currents were filtered at 5 kHz and acquired at 25 kHz. Series resistance compensation was used and set to 70%.

NaV1.7 [2] = molecular target: T1, NaV1.7
Protocol: To determine the voltage dependence of slow inactivation, HEK293-NaV1.7 cells were held at −120 mV and peak current determined by an initial 20 ms pulse to 0 mV. Following a series of 15,000 ms step pulses ranging from −120 to 0 mV in 20 mV increments, a subsequent 50 ms test pulse to 0 mV, preceded by a 50 ms step to −120 mV to remove fast inactivation, was used to determine the remaining current. The proportion of slow-inactivated channels was determined by normalizing peak current from the test pulse to the initial depolarization. A Boltzmann equation was fit to the current data, plotted as a function of voltage, to determine the V50 as well as the minimum proportion of activatable channels.

NaV1.7 [3] = molecular target: T1, NaV1.7; experiment: Effect of TMEM233 co-expression on ramp currents; details: Fig 6j
Protocol: The holding potential was −90 mV. After a 50 ms pulse to −100 mV, ramps from −100 mV to +20 mV at a rate of 0.2 and 1.0 mV/ms were applied before and after ExTxA (100 nM) addition.

NaV1.7 [4] = molecular target: T1, NaV1.7; experiment: Effect of TMEM233 co-expression on use-dependence; details: Fig 6l; for Use-dependence, predicted (LS) mean: n = 6
Protocol: Use-dependence experiments were performed on the Patchliner Quattro (Nanion Technologies GmbH, Munich, Germany) using an EPC 10 USB Quadro Patch Clamp Amplifier (HEKA Elektronik GmbH, Lambrecht/Pfalz, Germany) and PatchControlHT 2.01.30 and PatchMaster v2x90.4 beta softwares (HEKA Elektronik GmbH, Lambrecht/Pfalz, Germany). Cells at approximately 70–80% confluency were harvested from T75 flasks using Accutase (Thermofisher, Massachusetts, USA) at room temperature for 2–5 min and resuspended in high-glucose Dulbecco’s Modified Eagle Medium (DMEM) (Sigma-Aldrich, New South Wales, Australia) with 15 mM HEPES (Sigma-Aldrich, NSW, Australia) prior to recovery in the cell hotel of the Patchliner for 10 min. ECS contained (in mM): NaCl 140, KCl 4, CaCl2 2, MgCl2 1, HEPES 10, glucose 5. The pH was adjusted to 7.4 with NaOH, and the osmolarity was 298 mOsm. ICS contained (in mM): CsCl 50, NaCl 10, CsF 60, EGTA 20, HEPES 10. The pH was adjusted to 7.2 with CsOH, and the osmolarity was 285 mOsm. A seal enhancer was used containing (in mM): NaCl 80, KCl 3, MgCl2 10, CaCl2 35, HEPES Na^+ salt 10. The pH was adjusted to 7.4 with HCl, and the osmolarity was 298 mOsm. The seal enhancer was washed off before starting the experiments. HEK293 cells stably expressing hNaV1.7/ β1 or hNaV1.7/ β1/C-HA TMEM233 were used. Consecutive series of 30 depolarizing 20 ms pulses from −90 mV to −20 mV were applied with frequencies of 1 Hz, 2 Hz, 5 Hz, 10 Hz, and 20 Hz. After the experiment ExTxA (100 nM) was applied to confirm TMEM233 expression. The amplitude of the test current was normalized to the current induced by the first pulse of its series, with the last test pulse plotted as a function of frequency for statistical analysis.

T1 sequence (Q15858 whole entry): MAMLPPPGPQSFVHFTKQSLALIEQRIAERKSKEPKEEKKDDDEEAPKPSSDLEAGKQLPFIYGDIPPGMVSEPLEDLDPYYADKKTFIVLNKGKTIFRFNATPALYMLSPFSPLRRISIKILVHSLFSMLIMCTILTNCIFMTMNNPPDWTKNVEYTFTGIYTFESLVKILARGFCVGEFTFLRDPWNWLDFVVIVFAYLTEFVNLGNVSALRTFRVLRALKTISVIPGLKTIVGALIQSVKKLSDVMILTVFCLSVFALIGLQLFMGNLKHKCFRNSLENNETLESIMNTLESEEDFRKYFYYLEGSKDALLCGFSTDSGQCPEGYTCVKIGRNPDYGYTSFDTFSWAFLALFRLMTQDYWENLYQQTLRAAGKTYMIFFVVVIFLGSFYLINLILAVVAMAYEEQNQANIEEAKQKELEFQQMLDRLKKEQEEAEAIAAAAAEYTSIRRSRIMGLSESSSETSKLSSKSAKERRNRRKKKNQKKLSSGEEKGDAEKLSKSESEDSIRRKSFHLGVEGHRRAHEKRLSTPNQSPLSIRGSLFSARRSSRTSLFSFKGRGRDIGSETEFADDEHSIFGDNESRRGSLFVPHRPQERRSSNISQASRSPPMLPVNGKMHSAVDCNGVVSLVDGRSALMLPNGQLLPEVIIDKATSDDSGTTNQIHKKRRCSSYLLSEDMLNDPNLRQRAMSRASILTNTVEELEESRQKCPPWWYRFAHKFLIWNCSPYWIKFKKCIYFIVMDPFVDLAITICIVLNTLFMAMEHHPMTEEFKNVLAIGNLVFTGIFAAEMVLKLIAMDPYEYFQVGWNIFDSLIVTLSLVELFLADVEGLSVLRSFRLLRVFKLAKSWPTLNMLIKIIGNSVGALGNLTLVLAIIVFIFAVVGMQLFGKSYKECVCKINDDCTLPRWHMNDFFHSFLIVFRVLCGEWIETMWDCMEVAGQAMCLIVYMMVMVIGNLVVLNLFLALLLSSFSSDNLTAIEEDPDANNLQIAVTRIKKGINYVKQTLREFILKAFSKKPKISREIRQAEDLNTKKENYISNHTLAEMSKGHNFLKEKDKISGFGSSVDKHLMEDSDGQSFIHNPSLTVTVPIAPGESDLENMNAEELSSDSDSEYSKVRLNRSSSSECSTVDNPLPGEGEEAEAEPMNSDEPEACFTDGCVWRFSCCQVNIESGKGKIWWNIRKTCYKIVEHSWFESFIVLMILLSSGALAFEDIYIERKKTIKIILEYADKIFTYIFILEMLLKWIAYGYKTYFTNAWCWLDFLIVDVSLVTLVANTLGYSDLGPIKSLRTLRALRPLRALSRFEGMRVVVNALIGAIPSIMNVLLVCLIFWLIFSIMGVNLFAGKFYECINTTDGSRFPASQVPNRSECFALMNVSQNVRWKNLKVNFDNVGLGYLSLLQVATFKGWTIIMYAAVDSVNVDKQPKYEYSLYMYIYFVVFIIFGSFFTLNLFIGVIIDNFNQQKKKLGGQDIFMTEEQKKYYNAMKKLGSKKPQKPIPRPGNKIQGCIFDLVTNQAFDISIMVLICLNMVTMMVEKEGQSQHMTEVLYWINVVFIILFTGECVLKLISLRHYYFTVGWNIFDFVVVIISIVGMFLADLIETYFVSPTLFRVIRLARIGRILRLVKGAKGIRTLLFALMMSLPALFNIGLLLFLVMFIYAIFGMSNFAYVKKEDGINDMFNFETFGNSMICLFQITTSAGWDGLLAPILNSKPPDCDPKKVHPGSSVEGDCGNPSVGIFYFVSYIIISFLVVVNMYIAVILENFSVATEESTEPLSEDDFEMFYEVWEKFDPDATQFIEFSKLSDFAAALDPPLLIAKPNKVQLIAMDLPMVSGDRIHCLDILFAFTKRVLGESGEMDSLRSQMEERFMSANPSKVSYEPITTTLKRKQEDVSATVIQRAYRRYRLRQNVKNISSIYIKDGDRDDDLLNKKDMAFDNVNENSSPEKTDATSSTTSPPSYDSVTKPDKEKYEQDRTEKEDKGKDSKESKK
T1 sequence (Q07699 19-218, further chain): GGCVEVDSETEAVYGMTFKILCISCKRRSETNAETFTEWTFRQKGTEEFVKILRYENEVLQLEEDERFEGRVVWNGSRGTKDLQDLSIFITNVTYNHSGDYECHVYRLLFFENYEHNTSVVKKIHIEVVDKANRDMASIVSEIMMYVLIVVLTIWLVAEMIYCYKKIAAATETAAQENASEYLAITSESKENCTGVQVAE

B1: TMEM233 (protein)
chain: MSQYAPSPDFKRALDSSPEANTEDDKTEEDVPMPKNYLWLTIVSCFCPAYPINIVALVFSIMSLNSYNDGDYEGARRLGRNAKWVAIASIIIGLLIIGISCAVHFTRNA
NaV1.7 [1]; Nav1.7/β1/TMEM233, HEK, individual cells, one line each (n = 11)
  V50 of Activation: -31.12 and -24.58 and -26.49 and -27.4 and -28.15 and -19.85 and -25.7 and -20.24 and -36.47 and -27.6 and -24.5
NaV1.7 [1]; Nav1.7/β1/TMEM233, HEK, mean, n = 11
  V50 of Activation, mean: -26.55
NaV1.7 [1]; Nav1.7/β1/TMEM233 minus Nav1.7/β1 (Mock), unpaired t test, P value 0.8489
  V50 of Activation, difference between means (B - A) ± SEM: -0.4462 ± 2.301
TMEM233
  Peak Current, difference between means (COS-1 TMEM233 - COS-1) ± SEM: 55.71 ± 37.05
  Peak Current, individual values: -254.824 and -273.19 and -178.816 and -233.506 and -232.738 and -200.138
  Peak Current, mean: -228.9
NaV1.7 [2]
  Bottom (Boltzmann sigmoidal, best-fit value): 0.2301
  Slope (Boltzmann sigmoidal, best-fit value): -7.153
  Top (Boltzmann sigmoidal, best-fit value): 1.031
  V50 (Boltzmann sigmoidal, best-fit value): -65.56 mV
NaV1.7 [2]; Fig. 6g, NaV1.7/β1/TMEM233, mean of n = 13, NaV1.7/β1 (Mock) mean -59.66, n = 11
  V50, mean: -65.18
NaV1.7 [2]; Fig. 6g, NaV1.7/β1/TMEM233, single replicates
  V50, individual values: -60.38 and -71.19 and -68.09 and -76.79 and -71.43 and -68.52 and -59.19 and -60.32 and -58.12 and -54.99 and -67.1 and -64.07 and -67.16
NaV1.7 [2]; Fig. 6g, unpaired t test P = 0.0108, 95% CI -9.637 to -1.412
  V50, difference between means (TMEM233 - Mock) ± SEM: -5.524 ± 1.983
NaV1.7 [3]; NaV1.7-TMEM233, mean of n = 9, NaV1.7 + pcDNA3.1 mean -0.1808, n = 11, analysis title says (+ExTxA)
  Peak current ramp 1 mV/ms, mean: -0.1202
NaV1.7 [3]; NaV1.7-TMEM233, single replicates, analysis title says (+ExTxA)
  Peak current ramp 1 mV/ms, individual values: -0.1309 and -0.159 and -0.09062 and -0.1816 and -0.1566 and -0.06849 and -0.0929 and -0.1073 and -0.09446
NaV1.7 [3]; unpaired t test P = 0.0914 (ns), 95% CI -0.01079 to 0.1320
  Peak current ramp 1 mV/ms, difference between means (TMEM233 - pcDNA3.1) ± SEM: 0.06063 ± 0.03399
NaV1.7 [4]; 1 Hz, Šídák's adjusted P >0.9999, 95% CI -0.1024 to 0.1060
  Use-dependence, predicted (LS) mean diff. (NaV1.7 - NaV1.7 + TMEM233): 0.001783
NaV1.7 [4]; 2 Hz, Šídák's adjusted P 0.9266, 95% CI -0.07138 to 0.1370
  Use-dependence, predicted (LS) mean diff. (NaV1.7 - NaV1.7 + TMEM233): 0.0328
NaV1.7 [4]; 5 Hz, Šídák's adjusted P 0.8365, 95% CI -0.06345 to 0.1449
  Use-dependence, predicted (LS) mean diff. (NaV1.7 - NaV1.7 + TMEM233): 0.04074
NaV1.7 [4]; 10 Hz, Šídák's adjusted P 0.4449, 95% CI -0.04066 to 0.1677
  Use-dependence, predicted (LS) mean diff. (NaV1.7 - NaV1.7 + TMEM233): 0.06353
NaV1.7 [4]; 20 Hz, Šídák's adjusted P 0.0161 (*), 95% CI 0.01628 to 0.2247
  Use-dependence, predicted (LS) mean diff. (NaV1.7 - NaV1.7 + TMEM233): 0.1205
NaV1.7 [4]; NaV1.7 + TMEM233, 1 Hz, NaV1.7 0.9861, n = 8
  Use-dependence, predicted (LS) mean: 0.9843
NaV1.7 [4]; NaV1.7 + TMEM233, 2 Hz, NaV1.7 0.9649, n = 8
  Use-dependence, predicted (LS) mean: 0.9321
NaV1.7 [4]; NaV1.7 + TMEM233, 5 Hz, NaV1.7 0.9335, n = 8
  Use-dependence, predicted (LS) mean: 0.8928
NaV1.7 [4]; NaV1.7 + TMEM233, 10 Hz, NaV1.7 0.8933, n = 8
  Use-dependence, predicted (LS) mean: 0.8298
NaV1.7 [4]; NaV1.7 + TMEM233, 20 Hz, NaV1.7 0.8046, n = 8
  Use-dependence, predicted (LS) mean: 0.6842
